Test results as given in the RNAGym collection of RNA variant scans (doi:10.7554/elife.90254).

B1: LINE1-full (parent)
chain: UACGUAGGUGGUUUUCCCCUGAUAGUGCUAAGGGGGCCUGGAAGUUUGGACUGGGCAGAGCUCAACACAGCGUGGCAAAGUGGCUGUGGCUAGACUGCCUCUCUGGAUUCCUCGUCACUCAGCAGGGCAUCUCUGAGAGAAAUGCC

Variants of: B1
Test: self-cleavage, relative activity (ratio to wild type); higher = more cleavage; in vitro, sequencing; the parent is a self-cleaving ribozyme

Variant | self-cleavage
U13G U108C | 1.31
U13G U108G | 1.2
U13C G125U | 1.4
U13C U143G | 2.3
U13C U143C | 1.06
U13G U143A | 1.33
U13G A107G | 1.12
U13G A107U | 1.58
U14A U108C | 0.87
U14A U108G | 1.09
U13A G126A | 1.08
U13G U23C | 0.76
U13G A69G | 0.67
U12G G89A | 0.14
U12G G105U | 0.67
U13G U96C | 0.14
U12G G139A | 0.95
U13C U96A | 0.11
U13C U96C | 0.17
U13C C19U | 1.01
U12G A129U | 1.49
U14A C99G | 0.63
U13C C113A | 0.44
U13C C113U | 1

Variant | self-cleavage
U13C C56U | 0.15
U13C C123A | 1.42
U12G U23C | 1.32
U13A G55A | 0.21
U13C G32C | 0.7
U13C G32U | 1.2
U13C G32A | 0.99
U14A A77C | 0.88
U12G U45A | 1.3
U13C U15G | 0.75
U13C U15A | 0.79
U13C G72U | 1.21
U12G U96C | 0.27
U13C C110A | 1.29
U13A U39C | 0.61
U13C G83U | 0.27
U12G U87C | 0.16
U12G U87A | 0.09
U12G U81A | 2.33
U12G U81G | 0.68
U12G U85G | 0.21
U12G U85A | 0.22
U13G U20A | 0.69
U13C U134C | 1.21

Variant | self-cleavage
U13C G36C | 0.96
U14A A124U | 1.67
U14A A124G | 0.62
U13C G27A | 0.85
U13C G33A | 0.81
U13A A94G | 0.19
U13A U143C | 1.51
U14A A67G | 0.59
U14A A64G | 0.21
U14A A64U | 0.48
U12G A121C | 1.29
U12G A121G | 1.4
U12G U73C | 1.54
U12G U73A | 1.68
U13G A30U | 0.56
U13G A30G | 1.27
U14A U62G | 0.53
U14A U62C | 0.1
U13C C68U | 0.17
U12G G36A | 0.22
U13C C120G | 1.48
U13A A50U | 0.58
U13C A129U | 1.13
U13C A129G | 1.52

Variant | self-cleavage
U12G U15C | 0.9
U13A U119A | 1.06
U13A C38A | 0.96
U13C A42G | 1.19
U13C A42U | 0.88
U12G U130C | 1.43
U12G U130G | 0.77
U13C G126A | 1.22
U13G C113A | 1.43
U12G A138G | 1.29
U13C A50G | 0.63
U14A U87A | 0.15
U14A U112C | 0.79
U14A U112A | 1.33
U12G U47A | 0.95
U13G A59G | 0.12
U13C G35C | 1.24
U13C G35U | 0.75
U13A G54U | 0.51
U13C U87A | 0.1
U13C U87C | 0.24
U13A A129U | 0.81
U13A A129G | 1.2
U12G G54A | 0.63

Variant | self-cleavage
U12G G70A | 0.07
U14A U85C | 0.13
U13C C28U | 0.64
U13C C146U | 1.64
U13A G35A | 0.65
U13A U112C | 0.9
U13A U112A | 0.45
U14A A94U | 0.13
U13A A43G | 0.96
U13A A141G | 1.26
U14A G144A | 1.12
U12G G21A | 1.19
U12G U109A | 1.47
U13A C103A | 1.04
U13C U47A | 1.02
U13C U47G | 0.81
U13A U47C | 0.59
U12G U134C | 1.19
U13A A78G | 0.84
U13A A57U | 0.06
U13A A57G | 0.51
U14A C131U | 0.21
U14A A65G | 0.06
U14A A50U | 0.18

Variant | self-cleavage
U13G U134A | 1.06
U13C C118U | 0.99
U13C A107U | 1.14
U13G C145U | 1.16
U14A U102C | 1.19
U12G U143A | 0.59
U13C U23A | 1.09
U12G A78G | 0
U13A C99U | 0.46
U13C C111A | 1.57
U13A C51A | 0.75
U12G C113A | 1.84
U13C A24G | 1.16
U13A A138G | 1.22
U12G G58A | 0.11
U13G A138G | 1.45
U13G U46C | 1.33
U13C U45A | 0.76
U13C U45C | 1.16
U13A U100C | 1.28
U13A U100A | 0.59
U13A U52C | 1.78
U13C G58C | 0.08
U13C U112A | 1.05

Variant | self-cleavage
U13C U119G | 1.28
U13C U119A | 1.15
U13C G127U | 1.36
U13C G127C | 1.47
U14A G34C | 1.98
U14A G34A | 0.78
U13G U47A | 0.86
U13G A31G | 0.39
U13C U29A | 0.95
U13C U29C | 1.35
U14A U100A | 0.28
U14A U100C | 0.78
U14A G54A | 0.4
U13G A79G | 2.7
U12G G44U | 1.1
U13G G105A | 0.74
U13C A124C | 1.67
U13C A124U | 1.28
U13C G93A | 0.17
U13C G93U | 0.03
U14A A59G | 0.14
U14A U52A | 1.09
U13A U130A | 1.15
